From patent US5596072

Target: functional human IL-4 receptor (hIL-4R) on TF-1 cells (human) (UniProt P24394)
Assay: displacement of I^125-hIL-4 from TF-1 cells

IC50: 0.2 nM | percent of the I^125-hIL-4 binding displaced: 70%
B1: mouse IL-13 (mouse P600), E. coli-derived (ligand)
chain: APGPVPRSVSLPLTLKELIEELSNITQDQTPLCNGSMVWSVDLAAGGFCVALDSLTNISNCNAIYRTQRILHGLCNRKAPTTVSSLPDTKI
